Experimental data: the supplement of paper PMC9732359
± gives the uncertainty stated by the source.

Assay: protein stability index of a GFP-peptide fusion (yeast GPS) (PSI 1-4); higher = more stable; sorted into four equal gates, so the index is relative within each strain
In short: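 Sequencing reads from sorted gates were used to score each peptide. The library consisted of tiled 17-residue yeast protein peptides fused downstream of GFP on a Cherry-expressing plasmid, pooled and carried in yeast. Mid-log cultures in leucine-free medium were split into four equal gates by GFP/Cherry ratio, and each gate's plasmids were PCR-amplified and Illumina-sequenced. The protein stability index adds up, over all gates, the read frequency multiplied by the gate number.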

Row | Sequence | protein stability index (doa10∆) | protein stability index (pdr5∆) | protein stability index (san1∆) | protein stability index (ubr1∆)
1 | CHDELKALPMLEQVEFE [MED4] | 3.17 ± 0.14 | 3.12 ± 0.3 | 2.7 ± 0.21 | 3.29 ± 0.12
2 | CILRFLQLPIEDKFLYG [SWI3] | 1.85 ± 0.07 | 1.72 ± 0.085 | 1.18 ± 0.19 | 1.18 ± 0.077
3 | CKDDVQLQKILESLKPI [MTW1] | 3.11 ± 0.11 | 2.94 ± 0.089 | 2.79 ± 0.06 | 2.87 ± 0.07
4 | CKEVGITAVHVKIRATG [RPS14A] | 1.93 ± 0.043 | 1.82 ± 0.039 | 1.81 ± 0.085 | 1.89 ± 0.035
5 | CKLFLADVFTDDDLFET [YCG1] | 3.03 ± 0.08 | 3.06 ± 0.051 | 3.03 ± 0.048 | 2.59 ± 0.038
6 | CKSLISENEDTKDLLSK [CSE2] | 3.23 ± 0.098 | 3.21 ± 0.093 | 3.1 ± 0.066 | 3.22 ± 0.12
7 | CKVVAEMIRGRSPEEIR [SKP1] |  | 1.95 ± 0.15 | 2.21 ± 0.29 | 1.49 ± 0.11
8 | CLEDPEKPFNENRFQDT [POP4] | 2.68 ± 0.15 | 3.02 ± 0.16 | 2.64 ± 0.24 | 3.03 ± 0.099
9 | CLFENDLQRLKPLGLDR [ITC1] | 2.92 ± 0.074 | 3.19 ± 0.11 | 3.15 ± 0.065 | 3.09 ± 0.042
10 | CNGSALVEARSLGHQTS [MTR3] | 3.52 ± 0.17 |  | 3.1 ± 0.22 | 
11 | CSFITQDKMFVSNPIRK [FAS1] | 1.37 ± 0.081 | 1.3 ± 0.073 | 1.25 ± 0.11 | 1.22 ± 0.042
12 | CSRIIKIDKPIRTQVNT [RGR1] | 1.94 ± 0.067 | 2.31 ± 0.047 | 2.09 ± 0.059 | 2.1 ± 0.039
13 | CTLTADGAYALSASWDK [ASC1] | 3.08 ± 0.051 | 3.25 ± 0.051 | 3.19 ± 0.075 | 3.19 ± 0.038
14 | CVKAIEALFQSRPDILS [YCG1] | 3.19 ± 0.083 | 2.47 ± 0.085 | 3.03 ± 0.082 | 3.05 ± 0.087
15 | CVQLIKCLVEKSICFEN [SWI1] | 2.49 ± 0.25 | 2.61 ± 0.25 | 2.28 ± 0.17 | 2.74 ± 0.15
16 | CVRVQLIKNGKKVTAFV [RPS23A] | 2.59 ± 0.085 | 2.66 ± 0.093 | 3.16 ± 0.13 | 3.13 ± 0.088
17 | CVVSTDSTNLSDDAAQF [ECM29] | 2.19 ± 0.086 | 2.6 ± 0.075 | 1.69 ± 0.08 | 3.04 ± 0.078
18 | CVYVPNFNASLQLTTNT [SNM1] | 2.06 ± 0.038 | 2.71 ± 0.047 | 2.52 ± 0.047 | 2.02 ± 0.065
19 | CYFRDFEYCRIDGSTSH [ISW2] | 2.51 ± 0.071 | 2.5 ± 0.079 | 2.48 ± 0.069 | 1.88 ± 0.042
20 | CYVGLLTAIPILLEPIY [SNU114] | 1.31 ± 0.045 | 1.23 ± 0.035 | 1.28 ± 0.064 | 1.34 ± 0.038
21 | DACPLDNQPWQLARCGR [HRT1] | 2.76 ± 0.068 | 2.56 ± 0.067 | 2.03 ± 0.077 | 2.61 ± 0.059
22 | DADEKSSNLYETIIEAD [YJR042W/NUP85] | 2.82 ± 0.067 | 2.95 ± 0.061 | 2.88 ± 0.057 | 3.13 ± 0.082
23 | DADGDIDMGEDKENVPV [DPB4] | 3.12 ± 0.17 | 3.29 ± 0.13 | 3.01 ± 0.15 | 3.66 ± 0.13
24 | DALQDVEESSEKKQKTE [DPB4] | 3.2 ± 0.082 | 3.42 ± 0.076 | 3.21 ± 0.048 | 3.18 ± 0.052
25 | DANRNANNIVNIVSDAG [GRR1] | 3.07 ± 0.068 | 3.06 ± 0.059 | 2.99 ± 0.041 | 2.97 ± 0.067
26 | DATFAGHSLGEYAALAS [FAS1] | 2.73 ± 0.14 | 3 ± 0.08 | 2.83 ± 0.11 | 2.49 ± 0.073

Row | Sequence | protein stability index (doa10∆) | protein stability index (pdr5∆) | protein stability index (san1∆) | protein stability index (ubr1∆)
27 | DCENFFNYVQECPAIPI [YJL039C/NUP192] | 2.49 ± 0.075 | 2.93 ± 0.064 | 3.23 ± 0.069 | 2.99 ± 0.05
28 | DDDAVRREVQIQLQEFL [NSL1] | 3.28 ± 0.093 | 3.27 ± 0.1 | 3.36 ± 0.073 | 3.45 ± 0.089
29 | DDDDNNESSSNTTVISD [DIS3] | 3.01 ± 0.077 | 3.24 ± 0.081 | 2.97 ± 0.049 | 2.91 ± 0.05
30 | DDDKKPDDDKIVPLTEG [RPT1] | 3 ± 0.13 | 3.29 ± 0.11 | 3.16 ± 0.12 | 3.32 ± 0.064
31 | DDDLFETLVLSYFSPIN [YCG1] | 2.23 ± 0.069 | 1.44 ± 0.05 | 1.36 ± 0.093 | 1.35 ± 0.032
32 | DDDNSNVDYYNVAHRIK [SNF2] | 3.31 ± 0.048 | 3.15 ± 0.044 | 3.06 ± 0.031 | 3.23 ± 0.038
33 | DDEEYDYNDVEVNSKKK [BRR2] | 3.3 ± 0.051 | 3.18 ± 0.051 | 3.32 ± 0.053 | 3.33 ± 0.036
34 | DDFDMLFGENDTSTQAY [NUT1] | 3.42 ± 0.08 | 3.37 ± 0.071 | 3.51 ± 0.053 | 3.2 ± 0.055
35 | DDFLSKKRKAGRPRGRP [SNF2] | 3.25 ± 0.3 | 3.1 ± 0.12 | 2.96 ± 0.2 | 2.89 ± 0.1
36 | DDIINNDEPSHKKIKVA [SIR2] | 2.77 ± 0.052 | 2.84 ± 0.037 | 2.64 ± 0.041 | 2.87 ± 0.042
37 | DDLERLKKIRAHRGIRH [RPS18A] | 1.47 ± 0.18 | 1.31 ± 0.1 | 1.21 ± 0.18 | 1.31 ± 0.18
38 | DDRDHFGKKRLDLAGPL [RPB2] |  | 2.85 ± 0.16 | 3.2 ± 0.21 | 3.31 ± 0.16
39 | DDRYGYQLYTSNPSGNY [PRE9] | 2.88 ± 0.073 | 2.97 ± 0.081 | 3.06 ± 0.065 | 3.1 ± 0.05
40 | DDSFSLLRIQMLLCVSY [PCI8] | 2.1 ± 0.042 | 2.05 ± 0.045 | 2.08 ± 0.052 | 2.42 ± 0.034
41 | DDVRRAAVIALGFVLLR [RPN2] | 1.86 ± 0.14 | 2.09 ± 0.075 | 1.99 ± 0.13 | 1.8 ± 0.082
42 | DDVVVLTGEAEIEQPVT [FAS1] | 3.47 ± 0.12 | 3.27 ± 0.12 | 2.85 ± 0.13 | 2.98 ± 0.099
43 | DDYYKEIIGGGSKSASK [ISW2] | 2.37 ± 0.12 | 3.09 ± 0.11 | 3 ± 0.09 | 2.69 ± 0.086
44 | DEEMLTSCTIPKAVVDH [GAL11] | 2.94 ± 0.085 | 2.77 ± 0.076 | 2.44 ± 0.12 | 2.9 ± 0.076
45 | DEEMTISQKLHDSILHS [RRP43] | 2.7 ± 0.052 | 2.74 ± 0.035 | 2.82 ± 0.03 | 2.92 ± 0.035
46 | DEEYPVKVKVSYQKLLK [PRP8] | 3.03 ± 0.091 | 1.86 ± 0.078 | 1.91 ± 0.15 | 2.6 ± 0.054
47 | DEFYINVDKNLNEIKEH [RPN14] | 2.51 ± 0.072 | 2.5 ± 0.054 | 2.73 ± 0.062 | 2.92 ± 0.067
48 | DEIDAALDFRNVSIVAN [SMC4] | 1.75 ± 0.056 | 1.91 ± 0.05 | 2.03 ± 0.076 | 1.54 ± 0.051
49 | DENELKKSEEKLREKVN [MTW1] | 2.97 ± 0.27 |  |  | 
50 | DEPDEQGNPKKRPGKLS [CYT1] |  | 3.45 ± 0.15 | 3.24 ± 0.16 | 3.44 ± 0.089
51 | DESTIKRIKPNTEITQK [ECM29] | 2.88 ± 0.051 | 2.96 ± 0.053 | 2.95 ± 0.046 | 2.91 ± 0.044
